The numbers were not newly measured in publication PMC5218898, which cites them from elsewhere.

As a reminder, the Kd is the equilibrium constant for the complex coming apart.

Data set [1] addresses EnvZ (Escherichia coli) (UniProt P0AEJ4).
Data set [2] has as its target RstB (Escherichia coli) (UniProt P18392).

For the substance EnvZ (from UniProt P0AEJ4), the Kd in data set [1] was 300 nM.

RstB (from UniProt P18392): the dissociation constant (Kd) in data set [2] is 300 nM.
